In IntAct's records for PubMed 9264463:

B1: Catenin alpha-1 (Mus musculus), P26231 (parent)
chain: MTAVHAGNINFKWDPKSLEIRTLAVERLLEPLVTQVTTLVNTNSKGPSNKKRGRSKKAHVLAASVEQATENFLEKGDKIAKESQFLKEELVVAVEDVRKQGDLMKSAAGEFADDPCSSVKRGNMVRAARALLSAVTRLLILADMADVYKLLVQLKVVEDGILKLRNAGNEQDLGIQYKALKPEVDKLNIMAAKRQQELKDVGNRDQMAAARGILQKNVPILYTASQACLQHPDVAAYKANRDLIYKQLQQAVTGISNAAQATASDDAAQHQGGSGGELAYALNNFDKQIIVDPLSFSEERFRPSLEERLESIISGAALMADSSCTRDDRRERIVAECNAVRQALQDLLSEYMGNAGRKERSDALNSAIDKMTKKTRDLRRQLRKAVMDHVSDSFLETNVPLLVLIEAAKNGNEKEVKEYAQVFREHANKLIEVANLACSISNNEEGVKLVRMSASQLEALCPQVINAALALAAKPQSKLAQENMDLFKEQWEKQVRVLTDAVDDITSIDDFLAVSENHILEDVNKCVIALQEKDVDGLDRTAGAIRGRAARVIHVVTSEMDNYEPGVYTEKVLEATKLLSNTVMPRFTEQVEAAVEALSSDPAQPMDENEFIDASRLVYDGIRDIRKAVLMIRTPEELDDSDFETEDFDVRSRTSVQTEDDQLIAGQSARAIMAQLPQEQKAKIAEQVASFQEEKSKLDAEVSKWDDSGNDIIVLAKQMCMIMMEMTDFTRGKGPLKNTSDVISAAKKIAEAGSRMDKLGRTIADHCPDSACKQDLLAYLQRIALYCHQLNICSKVKAEVQNLGGELVVSGVDSAMSLIQAAKNLMNAVVQTVKASYVASTKYQKSQGMASLNLPAVSWKMKAPEKKPLVKREKQDETQTKIKRASQKKHVNPVQALSEFKAMDSI

Variants of: B1
Conditions: with ctnb1_human CTNNB1, P35222
Sequence of ctnb1_human CTNNB1, P35222 (P35222 whole entry): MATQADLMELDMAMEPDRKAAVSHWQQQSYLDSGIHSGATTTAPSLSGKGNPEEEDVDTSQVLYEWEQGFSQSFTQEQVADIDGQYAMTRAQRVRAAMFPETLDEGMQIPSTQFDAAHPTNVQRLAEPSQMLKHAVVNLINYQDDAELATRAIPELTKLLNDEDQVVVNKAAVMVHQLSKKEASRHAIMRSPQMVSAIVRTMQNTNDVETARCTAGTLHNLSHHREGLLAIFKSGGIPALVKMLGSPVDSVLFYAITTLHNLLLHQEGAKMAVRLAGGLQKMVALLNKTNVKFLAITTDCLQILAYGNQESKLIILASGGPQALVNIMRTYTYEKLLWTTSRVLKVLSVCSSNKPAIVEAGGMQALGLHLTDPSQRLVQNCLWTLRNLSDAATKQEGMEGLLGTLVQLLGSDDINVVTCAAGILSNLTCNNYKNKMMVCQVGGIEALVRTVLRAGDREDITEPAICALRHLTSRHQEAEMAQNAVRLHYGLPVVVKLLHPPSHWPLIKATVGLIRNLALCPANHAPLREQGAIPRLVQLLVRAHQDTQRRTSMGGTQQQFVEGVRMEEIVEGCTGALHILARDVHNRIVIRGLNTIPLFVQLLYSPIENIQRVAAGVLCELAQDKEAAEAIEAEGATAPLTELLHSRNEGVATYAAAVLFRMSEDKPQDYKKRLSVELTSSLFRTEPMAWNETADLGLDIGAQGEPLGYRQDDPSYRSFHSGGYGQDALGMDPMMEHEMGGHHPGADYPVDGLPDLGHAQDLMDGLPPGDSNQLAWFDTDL
In the case of R137A, the “effect of a mutation on the interaction” value is reported as “decreasing interaction”.
A142S was tested, and the “effect of a mutation on the interaction” value was “decreasing interaction”.
With T136A the “effect of a mutation on the interaction” value was “increasing interaction”.
With V125A the “effect of a mutation on the interaction” value was “decreasing interaction”.
For L132A, the “effect of a mutation on the interaction” value was “decreasing interaction”.
R129A was tested, and the “effect of a mutation on the interaction” value was “increasing interaction”.
With R126A the “effect of a mutation on the interaction” value was “increasing interaction”.
In the case of S133A, the “effect of a mutation on the interaction” value is reported as “increasing interaction”.
For L138A, the “effect of a mutation on the interaction” value was “decreasing interaction”.
In the case of V135A, the “effect of a mutation on the interaction” value is reported as “decreasing interaction”.
With L141A the “effect of a mutation on the interaction” value was “decreasing interaction”.
For L139A, the “effect of a mutation on the interaction” value was “decreasing interaction”.
For L131A, the “effect of a mutation on the interaction” value was “decreasing interaction”.
